The values that follow come from patent US20020103111A1 (Takeda / Millennium, published 2002).

Bridge positions count the residues as written; N and C are the ends. Ends that are not written are not given here. R1 = not defined here

The target of assay [1] is T1, human α4β7 integrin (human, UniProt P13612 34-1032; P26010 20-798).
T1 construct: whole, on cells; assays run with Mn++; also called α4β7 on HUT 78 cells; α4β7 on RPMI 8866 cells
Kind of assay: inhibition of RPMI 8866 cell adhesion to huMAdCAM-1-Ig.

The target in assay [2] is T1, human α4β7 integrin. Kind of assay: inhibition of HUT 78 cell adhesion to murine MAdCAM-1/mCk. Here is the method:
The assay was performed in a 96-well format. Plates were coated overnight at 4° C. with 53 μl/well of a 5 μg/mL solution of rat anti-mCk in carbonate buffer. The plates were blocked for 1 hour at 37° C. with 100 μL/well of 1% BSA in PBS. The BSA/PBS solution was removed, and 50 μL of MAdCAM-mCk supernatant was added neat to each well. The assay was conducted under conditions in which capture antibody was the limiting reagent.
Cell adhesion was measured in the presence or absence of compounds. The compounds were resuspended in 100% DMSO, subsequently diluted 1:10 in water, and finally diluted again 1:10 in the assay: 50 μL of 2X Assay Bufler, 30 μL water, 20 μL of compound were added to each well.
Over this range, Four different concentrations were tested in duplicate.

As usually defined, the IC50 is the concentration at which inhibition is half-maximal. A low value points to greater potency. Turning to R1-LDTSL (reading uncertain; also: printed as R1-Leu-Asp-Thr-Ser-Leu, not tied) [R1-Leu-Asp-Thr-Ser-Leu, L# 1276 (Table 4)], in assay [1], it took 2.7 µM to reach half-maximal inhibition (IC50).

B1: Ac-Cys*-Gly-Leu-Asp-Thr-Ser-Leu-Gly-Cys* (peptide)
peptide: Ac-CGLDTSLGC
modifications: disulfide 1-9; not fully specified (C-terminus); printed as Ac-Cys*-Gly-Leu-Asp-Thr-Ser-Leu-Gly-Cys*
notes: also called Ex No 5; 00145-1B
Take B1: half-maximal inhibition in assay [2] (IC50) required 266 µM.
